In experiment [1] the target is fl-16E7 (human papillomavirus type 16) (UniProt P03129). Kind of experiment: fluorescence polarisation; direct: 1.5-fold dilution series of MBP-E6 (or MBP) against fixed fl-E7 (350 nM HPV16, 200 nM HPV31) or 350 nM fl-16E7CR1/2; 20 mM Hepes pH 7.5, 200 mM NaCl, 1 mM TCEP, 0.005% Tween-20; one-site-specific binding fit. For orientation: Polarisation of emitted light reports the rotation of a fluorescent probe.

Experiment [2] has as its target fl-16E7CR1/2 (aa 1–44) (human papillomavirus type 16) (UniProt P03129). The description is as above.
Experiment [3] concerns the target fl-16E7 (human papillomavirus type 16) (UniProt P03129). Kind of experiment: AUC; sedimentation equilibrium, 12,000 or 18,000 rpm, 20 °C, 20 mM Hepes pH 7.5, 200 mM NaCl, 1 mM TCEP; 100 μM MBP-16E6_4C4S-LxxLL, 100 μM fl-16E7, 100 μM complex (1:1 molar mixture).
Experiment [4] shares this target. Kind of experiment: AUC; sedimentation velocity, 40,000 rpm, 20 °C, 20 mM Hepes pH 7.5, 200 mM NaCl, 1 mM TCEP; fl-16E7 followed at 495 nm; 1:1 molar mixture and titration of MBP-16E6_4C4S-LxxLL (0-150 μM) against 100 μM fl-16E7.
Experiment [5] deals with MBP-16E6_4C4S (human papillomavirus type 16). Nature of the experiment: fluorescence polarisation; competition: unlabeled GGG-E7 dimer (two-fold dilutions, from 200 μM HPV16, from 150 μM HPV31) against the preformed complex of fl-E7 with 50 μM MBP-16E6_4C4S or 70 μM MBP-31E6_2C2S-LxxLL (60-80% saturation); FP assay buffer; one-site-specific binding fit.
Experiment [6] concerns the target fl-31E7 (human papillomavirus type 31) (UniProt P17387). Nature of the experiment: fluorescence polarisation; direct: 1.5-fold dilution series of MBP-E6 (or MBP) against fixed fl-E7 (350 nM HPV16, 200 nM HPV31) or 350 nM fl-16E7CR1/2; 20 mM Hepes pH 7.5, 200 mM NaCl, 1 mM TCEP, 0.005% Tween-20; one-site-specific binding fit.
Experiment [7] addresses MBP-16E6_4C4S (human papillomavirus type 16). Nature of the experiment: fluorescence polarisation; competition: nonlabeled 16E7CR1/2 against the fl-16E7/MBP-16E6_4C4S complex (Fig. S5).
Experiment [8] has the same target. Nature of the experiment: fluorescence polarisation; competition: nonlabeled 16E7CR1/2 (aa 1-44) against the complex of 200 μM MBP-16E6_4C4S and 350 nM fl-16E7CR1/2 (60% saturation).
The target of experiment [9] is MBP-31E6_2C2S-LxxLL (human papillomavirus type 31 | not stated) (UniProt P17386). Kind of experiment: fluorescence polarisation; competition: unlabeled GGG-E7 dimer (two-fold dilutions, from 200 μM HPV16, from 150 μM HPV31) against the preformed complex of fl-E7 with 50 μM MBP-16E6_4C4S or 70 μM MBP-31E6_2C2S-LxxLL (60-80% saturation); FP assay buffer; one-site-specific binding fit.

The target in a further experiment is T1, EYFP-38E7 (human papillomavirus type 38, UniProt Q80908 1-100).
T1 construct: Cloned in pEYFP-C1; SG linker between EYFP and E7; also called EYFP-E7 (HPV38); HPV 38E7; source: C33A, transfected, in cells; not shown: EYFP, N-terminal, kept
T1 sequence: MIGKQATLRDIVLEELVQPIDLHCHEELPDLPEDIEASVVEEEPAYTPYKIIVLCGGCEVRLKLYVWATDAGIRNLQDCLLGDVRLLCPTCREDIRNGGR
Kind of experiment: FRET or BRET; flow cytometry-based FRET (FACS-FRET) in C33A cells coexpressing mTagBFP2-E6 and EYFP-E7 of the same HPV type; at least 10% FRET and at least 500 FRET-positive cells count as an interaction; three biological replicates. The note with it: partners not purified. (In BRET a luciferase serves as donor, and the signal depends on an acceptor being close.)

The target of a further experiment is T2, EYFP-16E7 (human papillomavirus type 16, UniProt P03129 1-98).
T2 construct: Cloned in pEYFP-C1; SG linker between EYFP and E7; also called EYFP-E7 (HPV16); HPV 16E7; source: C33A, transfected, in cells; not shown: EYFP, N-terminal, kept
T2 sequence (looked up): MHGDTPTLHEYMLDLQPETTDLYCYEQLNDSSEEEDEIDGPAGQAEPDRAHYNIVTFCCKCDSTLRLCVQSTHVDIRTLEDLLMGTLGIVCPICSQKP
The experiment is described as above. As to conditions: partners not purified.

In another experiment the target is T3, EYFP-31E7 (human papillomavirus type 31, UniProt P17387 1-98).
T3 construct: Cloned in pEYFP-C1; SG linker between EYFP and E7; also called EYFP-E7 (HPV31); HPV 31E7; source: C33A, transfected, in cells; not shown: EYFP, N-terminal, kept
T3 sequence: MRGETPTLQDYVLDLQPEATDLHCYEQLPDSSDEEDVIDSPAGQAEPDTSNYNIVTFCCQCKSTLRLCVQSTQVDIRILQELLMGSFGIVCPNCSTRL
The experiment is described as above. The note with it: partners not purified.

This is an account of results in publication PMC10372912, “Evidence for direct interaction between the oncogenic proteins E6 and E7 of high-risk human papillomavirus (HPV)” (The Journal of Biological Chemistry, 2023).

Consider MBP-16E6_4C4S (natural protein), for which the Kd – broadly, the equilibrium constant for the complex coming apart – in experiment [1] was 3 µM; in [2], 101 µM.
Take MBP-16E6_4C4S-LxxLL: the stoichiometry N (E6 per E7 (2:2 complex)) in experiment [3] amounted to 1. For the same molecule, in experiment [4], the percent of fl-16E7 in complex is 89%. This molecule had an equilibrium dissociation constant (Kd) in experiment [1] of 46.4 µM.
“unlabeled GGG-16E7 dimer (from UniProt P03129 1-98) (natural protein)” returned a Kd in [5] of 61.9 µM.
“fl-16E7 (from UniProt P03129 1-98) (natural protein)”: in [3], the stoichiometry N (commonly a count of units in the complex or per binding partner) was 2.
In [6], “MBP-31E6_2C2S-LxxLL (from UniProt P17386 1-149)” came in with a Kd of 59.4 µM.
On to “nonlabeled 16E7CR1/2 (aa 1–44) (from UniProt P03129 1-44) (peptide)”, for which the Kd in experiment [7] worked out at 288 µM; in [8] it was 128 µM.

B1: unlabeled GGG-31E7 dimer (natural protein)
chain: GGGMRGETPTLQDYVLDLQPEATDLHCYEQLPDSSDEEDVIDSPAGQAEPDTSNYNIVTFCCQCKSTLRLCVQSTQVDIRILQELLMGSFGIVCPNCSTRL
Regarding B1, the dissociation constant Kd in [9] stood at 54.2 µM. In other words, the double-digit micromolar range.

B2: mTagBFP2-38E6 (natural protein)
chain: MELPKPQTVQQLSDKLTVPVEDLLLPCRFCNSFLTYIELREFDYKNLQLIWTQEDFVFACCSSCAYASAQYECQQFYELTVFGREIEQVEQQTIGLIVIRCQYCLKCLDLIEKLDICCSHQAFHKVRGNWKGRCRHCKAIE
notes: Cloned in pmTagBFP-C1; SG linker between the fluorescent protein and the viral protein; also called mTagBFP2-E6 (HPV38); HPV 38E6; source: C33A, transfected, in cells; not shown: mTagBFP2, N-terminal, kept
For B2, in the experiment with EYFP-38E7, the “percent FRET” value was 17.9%.

B3: mTagBFP2-16E6 (natural protein, human papillomavirus type 16, UniProt P03126 1-158, looked up)
chain: MHQKRTAMFQDPQERPRKLPQLCTELQTTIHDIILECVYCKQQLLRREVYDFAFRDLCIVYRDGNPYAVCDKCLKFYSKISEYRHYCYSLYGTTLEQQYNKPLCDLLIRCINCQKPLCPEEKQRHLDKKQRFHNIRGRWTGRCMSCCRSSRTRRETQL
notes: Cloned in pmTagBFP-C1; SG linker between the fluorescent protein and the viral protein; also called mTagBFP2-E6 (HPV16); HPV 16E6; source: C33A, transfected, in cells; not shown: mTagBFP2, N-terminal, kept
In the case of B3, the “percent FRET” value in the experiment with EYFP-16E7 is 13%.

B4: mTagBFP2-31E6 (natural protein)
chain: MFKNPAERPRKLHELSSALEIPYDELRLNCVYCKGQLTETEVLDFAFTDLTIVYRDDTPHGVCTKCLRFYSKVSEFRWYRYSVYGTTLEKLTNKGICDLLIRCITCQRPLCPEEKQRHLDKKKRFHNIGGRWTGRCIACWRRPRTETQV
notes: Cloned in pmTagBFP-C1; SG linker between the fluorescent protein and the viral protein; also called mTagBFP2-E6 (HPV31); HPV 31E6; source: C33A, transfected, in cells; not shown: mTagBFP2, N-terminal, kept
B4: the “percent FRET” value in the experiment with EYFP-31E7 is 16.3%.
